Assay [1] deals with bovine thyroglobulin (bovine) (UniProt P01267). The assay can be described thus: phage ELISA, 200 ug/ml thyroglobulin coated.
For assay [2], the target named is fd h-PDGFB-R phage (extracellular domain of the human receptor for PDGF isoform BB displayed on fd phage) (human; bacteriophage fd) (UniProt P09619). As to the kind of experiment: displacement of 125I-PDGF-BB from receptor phage, immunoprecipitation.
Chain of fd h-PDGFB-R phage (extracellular domain of the human receptor for PDGF isoform BB displayed on fd phage) (human; bacteriophage fd) (P09619 33-531, form in doubt): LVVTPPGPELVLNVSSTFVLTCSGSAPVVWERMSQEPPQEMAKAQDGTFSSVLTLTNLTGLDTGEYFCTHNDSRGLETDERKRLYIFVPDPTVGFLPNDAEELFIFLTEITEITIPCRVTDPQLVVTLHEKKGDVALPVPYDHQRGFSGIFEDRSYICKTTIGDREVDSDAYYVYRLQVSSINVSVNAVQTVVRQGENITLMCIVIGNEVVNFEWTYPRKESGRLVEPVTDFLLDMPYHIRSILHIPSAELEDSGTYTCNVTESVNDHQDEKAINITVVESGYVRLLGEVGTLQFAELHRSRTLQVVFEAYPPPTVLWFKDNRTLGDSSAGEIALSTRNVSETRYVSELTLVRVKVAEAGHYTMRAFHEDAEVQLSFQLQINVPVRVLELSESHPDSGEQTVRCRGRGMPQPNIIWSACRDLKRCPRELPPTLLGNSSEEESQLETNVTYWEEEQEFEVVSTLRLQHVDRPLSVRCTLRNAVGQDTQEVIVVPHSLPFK

Chain of bovine thyroglobulin (bovine) (P01267 20-2769 limits assumed): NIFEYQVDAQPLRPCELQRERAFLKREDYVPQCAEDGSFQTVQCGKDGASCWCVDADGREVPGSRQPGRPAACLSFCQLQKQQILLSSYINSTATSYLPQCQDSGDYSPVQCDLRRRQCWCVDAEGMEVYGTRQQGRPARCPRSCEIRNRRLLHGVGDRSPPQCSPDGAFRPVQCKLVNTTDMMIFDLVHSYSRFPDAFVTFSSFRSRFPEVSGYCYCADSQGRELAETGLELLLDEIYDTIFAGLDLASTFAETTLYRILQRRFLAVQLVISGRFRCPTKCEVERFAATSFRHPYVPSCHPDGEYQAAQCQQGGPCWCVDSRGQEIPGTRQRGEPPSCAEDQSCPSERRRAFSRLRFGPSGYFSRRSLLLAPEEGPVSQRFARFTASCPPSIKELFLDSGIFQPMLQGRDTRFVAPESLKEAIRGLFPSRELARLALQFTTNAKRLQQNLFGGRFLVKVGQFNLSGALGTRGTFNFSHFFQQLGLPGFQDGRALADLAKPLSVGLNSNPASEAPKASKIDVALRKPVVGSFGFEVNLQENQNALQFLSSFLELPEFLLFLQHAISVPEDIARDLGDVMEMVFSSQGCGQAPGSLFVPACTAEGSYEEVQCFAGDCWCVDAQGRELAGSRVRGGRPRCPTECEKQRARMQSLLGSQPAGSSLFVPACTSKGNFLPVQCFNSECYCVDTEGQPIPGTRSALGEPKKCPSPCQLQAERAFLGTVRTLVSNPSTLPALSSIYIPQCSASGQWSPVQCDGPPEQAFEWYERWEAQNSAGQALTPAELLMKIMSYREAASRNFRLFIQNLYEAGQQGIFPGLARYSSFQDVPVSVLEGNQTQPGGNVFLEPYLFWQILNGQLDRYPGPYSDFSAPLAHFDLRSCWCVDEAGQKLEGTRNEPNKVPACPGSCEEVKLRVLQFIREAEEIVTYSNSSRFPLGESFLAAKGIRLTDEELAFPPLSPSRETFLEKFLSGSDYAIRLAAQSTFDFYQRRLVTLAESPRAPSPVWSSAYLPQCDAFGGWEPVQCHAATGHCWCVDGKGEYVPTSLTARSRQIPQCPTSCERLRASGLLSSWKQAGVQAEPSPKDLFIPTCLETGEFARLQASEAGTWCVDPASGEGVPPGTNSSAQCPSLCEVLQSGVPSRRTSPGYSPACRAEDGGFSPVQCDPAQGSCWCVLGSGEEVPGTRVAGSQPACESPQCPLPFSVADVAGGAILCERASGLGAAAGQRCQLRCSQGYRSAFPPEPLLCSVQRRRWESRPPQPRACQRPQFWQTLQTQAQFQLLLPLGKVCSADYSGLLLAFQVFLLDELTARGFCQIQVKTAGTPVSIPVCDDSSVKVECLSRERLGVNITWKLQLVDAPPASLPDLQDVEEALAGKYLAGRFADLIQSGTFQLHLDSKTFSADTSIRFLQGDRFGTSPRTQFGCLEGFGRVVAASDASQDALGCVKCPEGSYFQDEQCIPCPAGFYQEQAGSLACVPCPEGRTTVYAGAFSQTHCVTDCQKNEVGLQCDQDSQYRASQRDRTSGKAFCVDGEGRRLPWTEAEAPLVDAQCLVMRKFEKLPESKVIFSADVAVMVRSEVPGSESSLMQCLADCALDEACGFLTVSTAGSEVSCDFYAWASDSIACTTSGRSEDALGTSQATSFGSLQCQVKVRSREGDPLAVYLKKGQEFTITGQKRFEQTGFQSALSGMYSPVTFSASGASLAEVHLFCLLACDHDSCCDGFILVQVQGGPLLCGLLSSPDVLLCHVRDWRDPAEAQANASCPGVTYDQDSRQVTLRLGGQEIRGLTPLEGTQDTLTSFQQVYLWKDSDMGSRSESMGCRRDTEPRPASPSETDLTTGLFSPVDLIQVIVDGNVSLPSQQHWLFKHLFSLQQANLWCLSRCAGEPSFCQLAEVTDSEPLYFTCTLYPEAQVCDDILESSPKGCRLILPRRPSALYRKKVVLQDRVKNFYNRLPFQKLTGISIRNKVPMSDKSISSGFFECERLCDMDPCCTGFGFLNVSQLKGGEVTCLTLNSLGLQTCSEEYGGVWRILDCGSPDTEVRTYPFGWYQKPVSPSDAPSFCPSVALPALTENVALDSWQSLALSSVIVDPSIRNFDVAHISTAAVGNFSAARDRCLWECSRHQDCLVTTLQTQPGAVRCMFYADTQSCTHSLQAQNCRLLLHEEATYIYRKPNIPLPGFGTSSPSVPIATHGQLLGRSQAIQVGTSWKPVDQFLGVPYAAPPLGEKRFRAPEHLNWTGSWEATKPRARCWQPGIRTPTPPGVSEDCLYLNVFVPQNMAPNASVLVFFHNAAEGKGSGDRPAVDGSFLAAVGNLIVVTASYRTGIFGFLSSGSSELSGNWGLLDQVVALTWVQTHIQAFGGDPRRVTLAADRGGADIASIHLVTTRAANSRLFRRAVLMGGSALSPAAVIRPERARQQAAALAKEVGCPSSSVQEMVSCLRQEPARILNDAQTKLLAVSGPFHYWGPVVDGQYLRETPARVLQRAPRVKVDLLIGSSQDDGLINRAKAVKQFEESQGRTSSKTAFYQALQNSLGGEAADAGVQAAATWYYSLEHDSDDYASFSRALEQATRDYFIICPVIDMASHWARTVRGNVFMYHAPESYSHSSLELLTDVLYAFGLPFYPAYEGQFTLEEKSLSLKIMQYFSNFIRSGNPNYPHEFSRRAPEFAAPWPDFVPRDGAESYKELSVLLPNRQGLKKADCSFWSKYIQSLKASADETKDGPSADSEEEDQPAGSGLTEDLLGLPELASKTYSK

In the case of “pCAT-3 non-recombinant vector phagemid particles (from UniProt P03661 19-424)”, the O.D. in ELISA in assay [1] was 0.07 O.D.

As to “unlabelled PDGF-BB (from UniProt P01127 82-190; P01127 82-190) (ligand)”, the concentration at which binding of 125I-PDGF-BB was reduced to the control level in assay [2] is 50 nM.

For the origin of these results see patent US20070148774A1.
